The values below come from patent US20140294844A1 (published 2014).

The chains are these.
B2: huPrP23-231 (receptor)
chain: not shown

Experiment [1] concerns the target B2.
Experiment [2] addresses A[beta]-derived diffusible ligands (ADDL) prepared from A[beta]1-42 (UniProt P05067 672-713).
Experiment [3] deals with bADDL preparation from biotinylated A[beta]1-42 (bA[beta]1-42) (UniProt P05067 672-713).

As a reminder, the Kd is the constant that tells how readily two partners part at equilibrium. The Ki is a dissociation constant, usually derived from enzyme kinetics or from competition with a known ligand. Read a high Ki as a looser hold on the target.

B1: ICSM-18 (antibody, V domains shown)
VH: EVQLQQSGPELVKPGSSVKISCKASRNTFTDYNLDWVKQSHGKTLEWIGNVYPNNGVTGYNQKFRGKATLTVDKSSSTAYMELHSLTSEDSAVYYCALYYYDVSYWGQGTLVTVSA
VL: QIVLTQSPAIMSASPGEKVTMTCSASSSVSYMHWYQQKSGTSPKRWIYDTSKLASGVPARFSGSGSGTSYSLTISSMEAEDAATYFCHQWRSNPYTFGGGTKLEIKR
In experiment [1], B1 came in with a Kd of roughly 10 nM and a Ki of roughly 20 nM.
In experiment [2], B2 registered a Kd of 100 nM. Moreover, in experiment [3], the affinity, expressed as Kd, was 82 nM and the “fold tighter binding than huPrP91-231” value amounted to 100 fold.
